T1: Tsa1 (S. cerevisiae 2-Cys peroxyredoxin), P34760
T1 chain: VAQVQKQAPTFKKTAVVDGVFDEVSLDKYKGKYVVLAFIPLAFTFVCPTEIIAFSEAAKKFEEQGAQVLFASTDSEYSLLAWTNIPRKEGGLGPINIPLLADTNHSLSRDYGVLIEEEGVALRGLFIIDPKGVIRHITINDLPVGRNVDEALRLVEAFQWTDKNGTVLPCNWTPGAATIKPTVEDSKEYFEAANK


Molecular target: T1, Tsa1 (S. cerevisiae 2-Cys …)

Row | Protein | reduction of the Cys-SO2H form of Tsa1
1 | Srx1^Cys106S (S. cerevisiae Srx1 with Cys106 changed to serine) (protein) MSLQSNSVKPTEIPLSEIRRPLAPVLDPQKIDAMVATMKGIPTASKTCSLEQAEAAASAGELPPVDVLGVRVKGQTLYYAFGGCHRLQAYDRRARETQNAAFPVRSRVLPATPRQIRMYLGSSLDIE | the other cysteine mutants have no effect for Srx1^Cys106S
2 | Srx1^Cys48S (S. cerevisiae Srx1 with Cys48 changed to serine) (protein) MSLQSNSVKPTEIPLSEIRRPLAPVLDPQKIDAMVATMKGIPTASKTSSLEQAEAAASAGELPPVDVLGVRVKGQTLYYAFGGCHRLQAYDRRARETQNAAFPVRCRVLPATPRQIRMYLGSSLDIE | a minor effect for Srx1^Cys48S
